Test results reported in US7708999B2, “Remedies for arthritis” (Kyowa Hakko Kirin Co., Ltd., priority 2001, dated 2010).

Key:
[1] = system: rabbit articular chondrocytes; assay: Degradation of extracellular matrix of rabbit chondrocytes with FGF-8; format: cell-based; conditions: 48 hours, FGF-8 1, 10 or 100 ng/mL tested
Procedure: Rabbit articular chondrocytes were isolated from both knees and shoulders of 3-week-old New Zealand white female rabbits and cultured according to the method of Tamura et al. (Tamura T. et al., Eur. J. Pharmacol., 419, 269-274, 2001). That is, the joints of both knees and the joints of both shoulders were isolated to collect the epiphyseal cartilages. […] The culture solution was removed, and the amount of glycosaminoglycan in extracellular matrix remaining on the plate was measured by the dimethymethylene blue (DMMB) method (Chandrasekhar S. et al., Anal. Biochem. 161 103-108, 1987). […] To 75 μL of this digested solution were added 25 μL of a guanidine hydrochloride buffer (2.88 mol/L guanidine hydrochloride, 50 mmol/L sodium acetate, pH 6.8) and 200 μL of a DMMB solution, and the absorbance was measured at 530/590 nm. The concentration of glycosaminoglycan of each sample was calculated from the absorbance of chondroitin sulfate (derived from whale cartilages, manufactured by Seikagaku Kogyo) used as a standard. Three experiments were performed for each condition and the mean values and the standard error were calculated.

[2] = system: knee joint of Sprague-Dawley rats; assay: Induction of arthritis by intraarticular injection of FGF-8; format: in vivo, rat; conditions: 50 μL of 1 mg/mL FGF-8 into knee joint of rats, after 3 days
Procedure: Arthritis-like phenotypes were induced in Sprague-Dawley rats (male, 7 weeks old, Japan Charles River) using FGF-8 in the following manner. Fifty μL of FGF-8 solution prepared with saline(manufactured by Otsuka Seiyaku Kojo) to a final concentration of 1 mg/mL was injected into the each knee joint of rats. Further, a group that injected 50 μL of saline into the knee joint was also prepared. One group consisted of 3 rats. After 3 days from the injection of FGF-8 or saline, the inside of the knee articular capsule was washed with 30 μL of saline comprising 0.38 w/v % sodium citrate to collect the lavage fluid, according to the method of Yamada et al (Yamada A. et al., Inflamm. Res., 49, 144-146, 2000). This procedure was repeated ten times to recover 300 μL of the joint lavage fluid. The amount of glycosaminoglycan in the joint lavage fluid was measured by the DMMB method described in Example 1. The patella of the knee joint was isolated, and the cartilaginous portion was digested with papain by the method described in Example 1 to measure the […].

[3] = system: human synovial cells derived from the rheumatoid arthritis patient; assay: Promotion of growth of human synovial cells with FGF-8 ([3H]thymidine incorporation); format: cell-based; conditions: FGF-8 10, 100 or 500 ng/mL tested
Procedure: Rabbit synovial cells were collected by the method of Hamilton et al. (Hamilton J. A. and Slywka J., J. Immunol. 126, 851-855, 1981). The isolated synovial cells were suspended in RPMI 1640 medium comprising 10 vol % FBS (FBS-comprising RPMI 1640 medium is hereinafter referred to as FBS/RPMI 1640), and 10,000 cells was inoculated at each well of a 96-well culture plate. After 24 hours of the culturing, the culture medium of each well was removed, and 200 μL of 0.2 vol % FBS/RPMI 1640 (non-stimulated group) or 0.2 vol % FBS/RPMI 1640 comprising FGF-8 (1, 10 or 100 ng/mL) was added. […] The culturing was further performed for 24 hours, and the radioactivity of [^3H]thymidine incorporated in the cells was measured using a liquid scintillation counter (1205 Beta Plate, manufactured by Perkin Elmer Life Science Japan). Six experiments were performed for each condition, and the mean values and the standard error were calculated.
The same experiment as in Example 3 was performed using human synovial cells derived from the rheumatoid arthritis patient (procured from Toyobo). […] Six experiments were performed for each condition, and the mean values and the standard error were calculated.

rabbit synovial cells = assay: Promotion of growth of rabbit synovial cells with FGF-8 ([3H]thymidine incorporation); format: cell-based; conditions: FGF-8 1, 10 or 100 ng/mL tested
Procedure: Rabbit synovial cells were collected by the method of Hamilton et al. (Hamilton J. A. and Slywka J., J. Immunol. 126, 851-855, 1981). The isolated synovial cells were suspended in RPMI 1640 medium comprising 10 vol % FBS (FBS-comprising RPMI 1640 medium is hereinafter referred to as FBS/RPMI 1640), and 10,000 cells was inoculated at each well of a 96-well culture plate. After 24 hours of the culturing, the culture medium of each well was removed, and 200 μL of 0.2 vol % FBS/RPMI 1640 (non-stimulated group) or 0.2 vol % FBS/RPMI 1640 comprising FGF-8 (1, 10 or 100 ng/mL) was added. When the activity of the anti-FGF-8 neutralizing antibody was examined, 200 μL of 0.2 vol % FBS/RPMI 1640 comprising FGF-8 (100 ng/mL) (0 group) or 0.2 vol % FBS/RPMI 1640 comprising FGF-8 (100 ng/mL) and anti-FGF-8 neutralizing antibody KM1334 (0.1, 0.3, 1, 3 or 10 μg/ml) was added to each well. After 48 hours of the culturing, 9.25 kBq per well of [^3H]thymidine was added. The culturing was further performed for 24 hours, and the radioactivity of [^3H]thymidine incorporated in the cells was measured using a liquid scintillation counter (1205 Beta Plate, manufactured by Perkin Elmer Life Science Japan). Six experiments were performed for each condition, and the mean values and the standard error were calculated.

[4] = system: rabbit articular chondrocytes; assay: Promotion of production of matrix metalloproteinase-3 from rabbit chondrocytes with FGF-8; format: cell-based; conditions: 48 hours
Procedure: Rabbit articular chondrocytes were isolated and cultured by the method described in Example 1. After the chondrocytes became confluent, the culture solution was replaced with 0.5 vol % FBS/DMEM, followed by the culturing for 24 hours. The culture solution was removed, and 1 mL of 0.5 vol % FBS/DMEM (non-stimulated group), 0.5 vol % FBS/DMEM comprising FGF-8 (100 ng/mL)(0 group) or 0.5 vol % FBS/DMEM comprising FGF-8 (100 ng/mL) and anti-FGF-8 neutralizing antibody KM1334 (1, 3 or 10 μg/mL) was added, followed by the culturing for 48 hours. After 48 hours, the culture medium was recovered, the matrix metalloproteinase-3 concentration in the culture medium was measured using rabbit matrix metalloproteinase-3 ELISA system (manufactured by Amersham Biosciences). Three experiments were performed for each condition, and the mean values and the standard error were calculated.

B1: FGF-8: fibroblast growth factor FGF-8, androgen-induced growth factor; manufactured by Peprotech (protein, UniProt P55075 23-233, looked up)
Fibroblast growth factor 8: QEGPGRGPALGRELASLFRAGREPQGVSQQHVREQSLVTDQLSRRLIRTYQLYSRTSGKHVQVLANKRINAMAEDGDPFAKLIVETDTFGSRVRVRGAETGLYICMNKKGKLIAKSNGKGKDCVFTEIVLENNYTALQNAKYEGWYMAFTRKGRPRKGSKTRQHQREVHFMKRLPRGHHTTEQSLRFEFLNYPPFTRSLRGSQRTWAPEPR
concentration at which FGF-8 significantly decreased the residual amount of glycosaminoglycan in extracellular matrix [1]: 100 ng/mL
concentration of glycosaminoglycan in the joint lavage fluid relative to the saline injected group [2]: 1.9 times
weight of the patella after papain digestion relative to the saline injected group [2]: 40%
concentration at which FGF-8 significantly promoted the incorporation of [3H]thymidine into the human synovial cells [3]: 500 ng/mL
concentration at which FGF-8 significantly promoted the incorporation of [3H]thymidine into the rabbit synovial cells (rabbit synovial cells): 100 ng/mL
concentration at which FGF-8 significantly increased the production of matrix metalloproteinase-3 from the chondrocytes [4]: 100 ng/mL
